In PMC8709174:

Biological target: Aplysia californica acetylcholine binding protein (Ac-AChBP) (Aplysia californica)
Experiment: crystal structure

## α-conotoxin RgIA (peptide)
  stoichiometry N (RgIA per Ac-AChBP pentamer): 5
